These results are taken from paper PMC3406929.

This assay deals with 1JO8-ZM109 (V1/V2 of HIV-1 strain ZM109 in the 1JO8 scaffold) (not stated | HIV-1 strain ZM109).

B1: antibody PG9 (antibody, V domains shown)
VH: QRLVESGGGVVQPGSSLRLSCAASGFDFSRQGMHWVRQAPGQGLEWVAFIKYDGSEKYHADSVWGRLSISRDNSKDTLYLQMNSLRVEDTATYFCVREAGGPDYRNGYNYYDFYDGYYNYHYMDVWGKGTTVTVSS
VL: QSALTQPASVSGSPGQSITISCNGTSNDVGGYESVSWYQQHPGKAPKVVIYDVSKRPSGVSNRFSGSKSGNTASLTISGLQAEDEGDYYCKSLTSTRRRVFGTGTKLTVL
With B1, the fold lower affinity than for wild-type ZM109 gp120 was 3 fold.
